The source of these data is the supplement of paper PMC9732359.

± gives the uncertainty stated by the source.

The data set can be described thus: protein stability index of a GFP-peptide fusion (yeast GPS) (PSI 1-4); higher = more stable; sorted into four equal gates, so the index is relative within each strain. In outline:
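Tiled 17-residue peptides from yeast proteins were fused downstream of GFP on a plasmid that also expresses Cherry, and the pooled library was carried in yeast. Mid-log cultures grown in leucine-free medium were sorted into four equal gates by GFP/Cherry fluorescence ratio. Plasmids from each gate were PCR-amplified and Illumina-sequenced, and reads were assigned to strains by barcodes. Each peptide's protein stability index is the sum, over gates, of the gate's read frequency multiplied by its gate number.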

For the sequence DLSYNFNVHEVPRAALE [YMR129W/POM152], the protein stability index (doa10∆) amounted to 2.91 ± 0.057, the protein stability index (pdr5∆) was determined as 3.04 ± 0.069, the protein stability index (san1∆) is 2.85 ± 0.054 and the protein stability index (ubr1∆) is 2.92 ± 0.049.
Take ITKLHLDKDRKALIQRK [RPL26A]: the protein stability index by setting is: (doa10∆) 2.1 ± 0.13; (pdr5∆) 1.92 ± 0.094; (san1∆) 2.49 ± 0.16; (ubr1∆) 1.51 ± 0.091.
Turning to PLPAVFSAPIRPDIVHT [RPL4A], the protein stability index is 1.96 ± 0.04 (doa10∆), 2.35 ± 0.04 (pdr5∆), 2.08 ± 0.06 (san1∆) and 2.13 ± 0.041 (ubr1∆).
In the same order, the values of CAYTGTGDVLLIQDLLH [RPN1] are 3.01 ± 0.059, 2.88 ± 0.064, 2.75 ± 0.065 and 2.8 ± 0.052.
Regarding TCPGLSLTDVAFFTYDA [ECM29], the protein stability index (doa10∆) was found to be 3.36 ± 0.14, the protein stability index (pdr5∆) stood at 3.05 ± 0.091, the protein stability index (san1∆) turned out to be 2.78 ± 0.072 and the protein stability index (ubr1∆) was 3.11 ± 0.099.
As to MTIDDSNRLLMDVDQFD [YJR042W/NUP85], the protein stability index amounted to 3.63 ± 0.21 (pdr5∆), 3.25 ± 0.098 (san1∆) and 3.51 ± 0.2 (ubr1∆).
For the sequence VEYKLTFVPTNSDKPRD [DIS3], the protein stability index by setting is: (doa10∆) 1.21 ± 0.14; (pdr5∆) 1.31 ± 0.094; (san1∆) 1.19 ± 0.24; (ubr1∆) 1.05 ± 0.11.
Taken in the same sequence, the figures for LRFPEHTSSGSVSFKVF [BRR2] were 1.59 ± 0.055, 1.51 ± 0.054, 1.33 ± 0.1 and 1.57 ± 0.06.
In the same order, the values of DYVNKTNSHLPAGKQVE [FAS1] are 3.16 ± 0.098, 3.57 ± 0.24, 3.08 ± 0.13 and 3.08 ± 0.11.
In the same order, the values of TLEAKIGGLLSKVREEV [RPO31] are 3 ± 0.11, 3.33 ± 0.11, 3.6 ± 0.084 and 2.87 ± 0.084.
As to FGAPNNPNSTAITADLG [YGL172W/NUP49], the protein stability index by setting is: (doa10∆) 3.04 ± 0.094; (pdr5∆) 3 ± 0.078; (san1∆) 3.03 ± 0.058; (ubr1∆) 2.84 ± 0.087.
In the same order, the values of HNGWVTSLATSAGQPNL [ASC1] are 2.32 ± 0.044, 2.04 ± 0.049, 2.09 ± 0.08 and 2.12 ± 0.052.
In the same order, the values of SYELRNTTTYKSRPDRP [SNF5] are 3.14 ± 0.06, 3.3 ± 0.071, 3.1 ± 0.087 and 3.19 ± 0.067.
Taken in the same sequence, the figures for SILEHSGIRLIEPELFN [FAS2] were 2.67 ± 0.068, 2.99 ± 0.061, 2.76 ± 0.058 and 2.86 ± 0.039.
For TKEVESNIITKSLVQYI [DIS3], the protein stability index reads like this: (doa10∆) 2.71 ± 0.14; (pdr5∆) 3.05 ± 0.11; (san1∆) 2.65 ± 0.076; (ubr1∆) 2.87 ± 0.19.
LGVKSRLLEKSELPDIY [SNF2] registered a protein stability index (doa10∆) of 3.12 ± 0.13, a protein stability index (pdr5∆) of 3.42 ± 0.15, a protein stability index (san1∆) of 3.05 ± 0.082 and a protein stability index (ubr1∆) of 3.11 ± 0.19.
Take VDQNPLTMHKIIQLILW [SRB8]: the protein stability index is, setting by setting: (doa10∆) 1.47 ± 0.085; (pdr5∆) 1.6 ± 0.086; (san1∆) 1.23 ± 0.17; (ubr1∆) 1.36 ± 0.081.
As for VRLPTKVLKISTRKTPN [RPS20], the protein stability index is 1.83 ± 0.087 (doa10∆), 2.22 ± 0.089 (pdr5∆), 1.7 ± 0.15 (san1∆) and 2.42 ± 0.084 (ubr1∆).
As for EAEIECFDSTTGRDAGF [RRP40], the protein stability index is, setting by setting: (doa10∆) 3.15 ± 0.17; (pdr5∆) 3.12 ± 0.17; (san1∆) 3.28 ± 0.095; (ubr1∆) 3.2 ± 0.12.
In the case of KFFHNGMIYNKLFVSKE [FAS2], the protein stability index reads like this: (doa10∆) 2.87 ± 0.089; (pdr5∆) 2.54 ± 0.086; (san1∆) 2.38 ± 0.12; (ubr1∆) 2.58 ± 0.077.
Taken in the same sequence, the figures for DQCKKQRRCLHCGALNG [RPO31] were 2.6 ± 0.14, 2.71 ± 0.18, 2.4 ± 0.11 and 2.57 ± 0.11.
As for QTLKGVGVENNGQYAAF [RPC37], the protein stability index by setting is: (doa10∆) 3.12 ± 0.14; (pdr5∆) 3.31 ± 0.098; (san1∆) 2.9 ± 0.18; (ubr1∆) 2.94 ± 0.2.
Taken in the same sequence, the figures for LIENKIQNKKIQEQRVK [RPN8] were 2.61 ± 0.075, 2.7 ± 0.073, 2.74 ± 0.068 and 2.83 ± 0.049.
SEGEQKSAEGNNIDQSL [YAR002W/NUP60]: the protein stability index is, setting by setting: (doa10∆) 2.98 ± 0.063; (pdr5∆) 2.94 ± 0.048; (san1∆) 2.94 ± 0.066; (ubr1∆) 3.05 ± 0.065.
For MANDLVQARDNSQVFGV [RPS14B], the protein stability index (doa10∆) came out at 2.39 ± 0.076, the protein stability index (pdr5∆) was 2.36 ± 0.061, the protein stability index (san1∆) was found to be 2.81 ± 0.049 and the protein stability index (ubr1∆) was determined as 2.97 ± 0.063.
As to SFLSKHALYLAPSGIRM [SSN2], the protein stability index was determined as 2.12 ± 0.067 (doa10∆), 1.56 ± 0.059 (pdr5∆), 1.46 ± 0.12 (san1∆) and 2.19 ± 0.086 (ubr1∆).
